Consider two molecules from PMC4490436.

The target of experiment [1] is CXCR4 receptor (human (endogenous in CCRF-CEM)) (UniProt P61073).
Experiment [2] has the same target. The source holds these as a separate data set.

No end group written: not given here. *: point of attachment. OAll = C=CCO*

UniProt P61073, sequence (P61073 whole entry): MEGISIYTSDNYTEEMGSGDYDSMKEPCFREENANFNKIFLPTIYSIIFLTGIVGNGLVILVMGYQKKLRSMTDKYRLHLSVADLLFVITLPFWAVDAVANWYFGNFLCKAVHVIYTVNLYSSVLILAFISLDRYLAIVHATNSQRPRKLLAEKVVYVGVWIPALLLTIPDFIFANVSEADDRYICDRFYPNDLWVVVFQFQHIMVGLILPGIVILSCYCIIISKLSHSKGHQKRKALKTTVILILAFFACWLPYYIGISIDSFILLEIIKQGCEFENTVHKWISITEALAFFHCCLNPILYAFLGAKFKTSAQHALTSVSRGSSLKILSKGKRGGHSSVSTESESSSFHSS

With YGECPCE-OAll (cysteine pairing not given here) [PepE], the migration index of CCRF-CEM cells towards CXCL12 (100 ng/mL) in a Transwell assay; 1.75-fold without peptide in experiment [1] came to 1.35 fold. Moreover, the increase of the cAMP level in CCRF-CEM cells in the presence of CXCL12 (100 ng/mL) and forskolin (1 uM); PepE at 1 and 10 uM (20% at 1 uM), dose dependent in experiment [2] was determined as 65%.

As to YGECPCK-OAll (cysteine pairing not given here) [PepK], in experiment [1], the migration index of CCRF-CEM cells towards CXCL12 (100 ng/mL) in a Transwell assay; 1.75-fold without peptide was determined as 1.55 fold.
